Test results published in the supplement of paper PMC9732359.
± gives the uncertainty stated by the source.

Assay: protein stability index of a GFP-peptide fusion (yeast GPS) (PSI 1-4); higher = more stable; sorted into four equal gates, so the index is relative within each strain
Outline: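 Each library plasmid carries Cherry plus GFP with a tiled 17-residue yeast protein peptide fused downstream, and the pooled library was carried in yeast. Mid-log cultures in leucine-free medium were sorted into four equal gates by GFP/Cherry ratio. Reads from Illumina sequencing of PCR-amplified plasmids from each gate were assigned to strains by barcodes. Per peptide, the protein stability index was computed as the summed products of gate read frequency and gate number.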

TNTSKQFQKARNNVMLL [SRB8]
protein stability index (doa10∆): 2.65 ± 0.14 | protein stability index (pdr5∆): 3 ± 0.066 | protein stability index (san1∆): 2.94 ± 0.06 | protein stability index (ubr1∆): 2.92 ± 0.083

SVLDEQEQYQTNTFEGS [SNU114]
protein stability index (doa10∆): 3.12 ± 0.14 | protein stability index (pdr5∆): 3.22 ± 0.08 | protein stability index (san1∆): 3.26 ± 0.11 | protein stability index (ubr1∆): 3.31 ± 0.071

PIPFEFQAVIQKSINHP [SNF2]
protein stability index (doa10∆): 2.67 ± 0.11 | protein stability index (pdr5∆): 2.61 ± 0.081 | protein stability index (san1∆): 2.37 ± 0.077 | protein stability index (ubr1∆): 2.86 ± 0.057

GLSKEDDVRDFVIRREV [RPS6A]
protein stability index (doa10∆): 3.42 ± 0.094 | protein stability index (pdr5∆): 3.42 ± 0.081 | protein stability index (san1∆): 3.13 ± 0.13 | protein stability index (ubr1∆): 3.68 ± 0.15

HRASPADVSIKSILQEI [POP5]
protein stability index (doa10∆): 3.11 ± 0.26 | protein stability index (pdr5∆): 3.27 ± 0.1 | protein stability index (san1∆): 2.95 ± 0.12

DRMDVDEDESQNIAQSS [HRT1]
protein stability index (doa10∆): 2.37 ± 0.072 | protein stability index (pdr5∆): 2.66 ± 0.062 | protein stability index (san1∆): 2.21 ± 0.051 | protein stability index (ubr1∆): 2.43 ± 0.05

FGKTTANLPANSSTSPA [YLR335W/NUP2]
protein stability index (doa10∆): 3.01 ± 0.047 | protein stability index (pdr5∆): 3.14 ± 0.058 | protein stability index (san1∆): 2.96 ± 0.045 | protein stability index (ubr1∆): 3.12 ± 0.035

VKKVVKEQTEAAKKSEK [RPL34A]
protein stability index (doa10∆): 3.37 ± 0.14 | protein stability index (pdr5∆): 3.4 ± 0.1 | protein stability index (san1∆): 3.19 ± 0.038 | protein stability index (ubr1∆): 3.31 ± 0.076

PDDMVEINSVGNPGLPQ [ITC1]
protein stability index (doa10∆): 2.85 ± 0.086 | protein stability index (pdr5∆): 3.26 ± 0.04 | protein stability index (san1∆): 3.05 ± 0.072 | protein stability index (ubr1∆): 3.09 ± 0.06

MAHRVKVIPYSTFRLNL [RPO21]
protein stability index (doa10∆): 1.87 ± 0.07 | protein stability index (pdr5∆): 1.82 ± 0.071 | protein stability index (san1∆): 1.2 ± 0.12 | protein stability index (ubr1∆): 2.29 ± 0.095

DEEETAEGQTNSISDFL [RPN1]
protein stability index (doa10∆): 2.84 ± 0.14 | protein stability index (pdr5∆): 3.13 ± 0.094 | protein stability index (san1∆): 2.94 ± 0.078 | protein stability index (ubr1∆): 3.04 ± 0.069

DEDWSVRIDKALELDDT [ECM29]
protein stability index (doa10∆): 2.76 ± 0.18 | protein stability index (pdr5∆): 3.38 ± 0.17

LQRQQRKSKLNLDNLQK [POP4]
protein stability index (doa10∆): 2.72 ± 0.077 | protein stability index (pdr5∆): 3.22 ± 0.2 | protein stability index (san1∆): 3.09 ± 0.064 | protein stability index (ubr1∆): 2.92 ± 0.15

NTLLISGPFKVNGVPLR [RPL6A]
protein stability index (doa10∆): 2.25 ± 0.074 | protein stability index (pdr5∆): 2.36 ± 0.059 | protein stability index (san1∆): 2.28 ± 0.076 | protein stability index (ubr1∆): 2.72 ± 0.04

YESRNVAKRRFEYSKYR [RRP6]
protein stability index (doa10∆): 3.16 ± 0.072 | protein stability index (pdr5∆): 3.4 ± 0.087 | protein stability index (san1∆): 3.29 ± 0.041 | protein stability index (ubr1∆): 3.3 ± 0.079

LLKKELLTIEPKLKEAT [SMC2]
protein stability index (doa10∆): 3.22 ± 0.052 | protein stability index (pdr5∆): 3.14 ± 0.064 | protein stability index (san1∆): 3.11 ± 0.046 | protein stability index (ubr1∆): 3.21 ± 0.039

QLENADTGTLDTKSVVG [RPN2]
protein stability index (doa10∆): 3.09 ± 0.087 | protein stability index (pdr5∆): 3.01 ± 0.082 | protein stability index (san1∆): 3.08 ± 0.071 | protein stability index (ubr1∆): 3.04 ± 0.075

SFGKIYVTKPMVNESDG [RPB2]
protein stability index (doa10∆): 3.12 ± 0.19 | protein stability index (pdr5∆): 3.18 ± 0.14 | protein stability index (san1∆): 3.01 ± 0.2 | protein stability index (ubr1∆): 3.26 ± 0.24

QRKKQSDVLRFLQRVRV [RPL15A]
protein stability index (doa10∆): 1.38 ± 0.16 | protein stability index (pdr5∆): 2.26 ± 0.21 | protein stability index (san1∆): 1.78 ± 0.26 | protein stability index (ubr1∆): 1.56 ± 0.099

LGVIHKGNLLEGKKVMA [RPN2]
protein stability index (doa10∆): 1.37 ± 0.07 | protein stability index (pdr5∆): 1.33 ± 0.048 | protein stability index (san1∆): 1.17 ± 0.11 | protein stability index (ubr1∆): 1.22 ± 0.057

LPDPILKNFLSYESLKK [MCD1]
protein stability index (doa10∆): 3 ± 0.094 | protein stability index (pdr5∆): 3.14 ± 0.091 | protein stability index (san1∆): 3.34 ± 0.046 | protein stability index (ubr1∆): 3.37 ± 0.058

LHKLELKAKNQEEEGEL [DSN1]
protein stability index (doa10∆): 3.14 ± 0.17 | protein stability index (pdr5∆): 3.29 ± 0.17 | protein stability index (san1∆): 3.37 ± 0.14 | protein stability index (ubr1∆): 3.25 ± 0.1

SECIVSIKSKVVDHHVE [RRP42]
protein stability index (doa10∆): 3.04 ± 0.066 | protein stability index (pdr5∆): 3.08 ± 0.08 | protein stability index (san1∆): 2.71 ± 0.14 | protein stability index (ubr1∆): 3.04 ± 0.067

SPELKADLRPLQIKSIR [RPS7B]
protein stability index (doa10∆): 2.42 ± 0.14 | protein stability index (pdr5∆): 2.9 ± 0.13 | protein stability index (san1∆): 2.67 ± 0.13 | protein stability index (ubr1∆): 2.98 ± 0.091

YNGRGARERKTATYNDN [SNF2]
protein stability index (doa10∆): 3 ± 0.069 | protein stability index (pdr5∆): 2.54 ± 0.074 | protein stability index (san1∆): 2.69 ± 0.074 | protein stability index (ubr1∆): 2.69 ± 0.071

AVSEKAGHQTSAESWGT [RPL4A]
protein stability index (doa10∆): 2.24 ± 0.086 | protein stability index (pdr5∆): 2.03 ± 0.1 | protein stability index (san1∆): 1.71 ± 0.11 | protein stability index (ubr1∆): 1.86 ± 0.088

FRFDSIQRETLLPTNNG [GRR1]
protein stability index (doa10∆): 2.59 ± 0.047 | protein stability index (pdr5∆): 2.67 ± 0.053 | protein stability index (san1∆): 2.69 ± 0.04 | protein stability index (ubr1∆): 2.92 ± 0.033

SRKETSRTATWLKNKFA [BRR2]
protein stability index (doa10∆): 1.37 ± 0.057 | protein stability index (pdr5∆): 1.29 ± 0.041 | protein stability index (san1∆): 1.67 ± 0.11 | protein stability index (ubr1∆): 1.49 ± 0.063

RPFEGLFVISTEISPMA [RRP45]
protein stability index (doa10∆): 2.67 ± 0.048 | protein stability index (pdr5∆): 2.87 ± 0.049 | protein stability index (san1∆): 3.04 ± 0.061 | protein stability index (ubr1∆): 2.86 ± 0.037

LALALGILYMGQGEQVD [RPN1]
protein stability index (doa10∆): 1.26 ± 0.16 | protein stability index (pdr5∆): 1.5 ± 0.13 | protein stability index (san1∆): 1.45 ± 0.13 | protein stability index (ubr1∆): 1.23 ± 0.11

SKISFIDEDKLYPSFKP [SSN2]
protein stability index (doa10∆): 2.96 ± 0.14 | protein stability index (pdr5∆): 2.8 ± 0.12 | protein stability index (san1∆): 2.25 ± 0.087 | protein stability index (ubr1∆): 2.54 ± 0.081

LGKQSSSLLSRLISSKM [FAS2]
protein stability index (doa10∆): 2.98 ± 0.065 | protein stability index (pdr5∆): 2.94 ± 0.065 | protein stability index (san1∆): 3.02 ± 0.078 | protein stability index (ubr1∆): 2.7 ± 0.048

LLRQKIEQCKHPLHELI [ISW2]
protein stability index (doa10∆): 1.37 ± 0.088 | protein stability index (pdr5∆): 1.49 ± 0.081 | protein stability index (san1∆): 1.45 ± 0.22 | protein stability index (ubr1∆): 1.48 ± 0.12

AKAVWENIIIVGGTTSI [ARP9]
protein stability index (doa10∆): 1.89 ± 0.044 | protein stability index (pdr5∆): 2.12 ± 0.057 | protein stability index (san1∆): 1.67 ± 0.081 | protein stability index (ubr1∆): 2.48 ± 0.054

NAQQTFHIDHTKPSDLT [RPO21]
protein stability index (doa10∆): 2.85 ± 0.044 | protein stability index (pdr5∆): 2.6 ± 0.042 | protein stability index (san1∆): 2.69 ± 0.048 | protein stability index (ubr1∆): 2.82 ± 0.041

AGKADTSIRLEGDELEN [SRB4]
protein stability index (doa10∆): 2.67 ± 0.089 | protein stability index (pdr5∆): 2.97 ± 0.12 | protein stability index (san1∆): 2.91 ± 0.088 | protein stability index (ubr1∆): 3.25 ± 0.077

RKEPPATVEECVKLTVR [PRE6]
protein stability index (doa10∆): 1.45 ± 0.06 | protein stability index (pdr5∆): 1.67 ± 0.074 | protein stability index (san1∆): 1.7 ± 0.2 | protein stability index (ubr1∆): 1.43 ± 0.055

DLSISALLGDKIYNFGE [RPN9]
protein stability index (doa10∆): 3.08 ± 0.068 | protein stability index (pdr5∆): 3.11 ± 0.065 | protein stability index (san1∆): 3.15 ± 0.061 | protein stability index (ubr1∆): 3.12 ± 0.091

SLYPPPPPYVKFFTQSN [MED7]
protein stability index (doa10∆): 1.97 ± 0.043 | protein stability index (pdr5∆): 2.17 ± 0.048 | protein stability index (san1∆): 2.16 ± 0.072 | protein stability index (ubr1∆): 2.35 ± 0.031

KEFDETIFNLPKNKLVP [FAS1]
protein stability index (doa10∆): 3.5 ± 0.17 | protein stability index (pdr5∆): 3.39 ± 0.18 | protein stability index (san1∆): 3.59 ± 0.085 | protein stability index (ubr1∆): 3.07 ± 0.2

VVGVVGYVETPRGLRSL [RPL3]
protein stability index (doa10∆): 2.15 ± 0.072 | protein stability index (pdr5∆): 2.68 ± 0.049 | protein stability index (san1∆): 3.15 ± 0.056 | protein stability index (ubr1∆): 2.98 ± 0.095

YDTTPLLDTNSLEENAM [SKI6]
protein stability index (doa10∆): 3.08 ± 0.12 | protein stability index (pdr5∆): 2.96 ± 0.082 | protein stability index (san1∆): 2.97 ± 0.15 | protein stability index (ubr1∆): 2.88 ± 0.078

SNDKVVEWINPSRRERR [ISW2]
protein stability index (ubr1∆): 3.34 ± 0.15

KKKDPVNQDKANNASQI [SNF12]
protein stability index (doa10∆): 3.02 ± 0.093 | protein stability index (pdr5∆): 3.22 ± 0.11 | protein stability index (san1∆): 3.19 ± 0.075 | protein stability index (ubr1∆): 3.19 ± 0.068

FIRHVAKLNYKNLNPAS [ECM29]
protein stability index (doa10∆): 2.49 ± 0.15 | protein stability index (pdr5∆): 1.16 ± 0.1 | protein stability index (ubr1∆): 1.03 ± 0.076

QQKANLLSSSNFEATKK [COR1]
protein stability index (doa10∆): 2.27 ± 0.069 | protein stability index (pdr5∆): 2.5 ± 0.075 | protein stability index (san1∆): 2.1 ± 0.086 | protein stability index (ubr1∆): 1.91 ± 0.05

ALDGDLIELLEKLDVSR [YCG1]
protein stability index (doa10∆): 3.27 ± 0.25 | protein stability index (pdr5∆): 3.42 ± 0.2 | protein stability index (san1∆): 3.16 ± 0.13 | protein stability index (ubr1∆): 2.73 ± 0.2

SLTTVWAEHLSDEVKRR [RPL3]
protein stability index (doa10∆): 2.87 ± 0.13 | protein stability index (pdr5∆): 2.85 ± 0.18 | protein stability index (ubr1∆): 3 ± 0.18

KEAFEEEIKQSARNYDK [SMC1]
protein stability index (doa10∆): 3.21 ± 0.078 | protein stability index (pdr5∆): 3.09 ± 0.082 | protein stability index (san1∆): 3.06 ± 0.051 | protein stability index (ubr1∆): 3.31 ± 0.056

IKKYASVVRVLVHTQIR [RPL3]
protein stability index (doa10∆): 1.87 ± 0.064 | protein stability index (pdr5∆): 2.32 ± 0.074 | protein stability index (san1∆): 1.62 ± 0.11 | protein stability index (ubr1∆): 2.13 ± 0.044

LNVYHYFGENSSISWKN [YJL039C/NUP192]
protein stability index (doa10∆): 1.79 ± 0.08 | protein stability index (pdr5∆): 2.76 ± 0.082 | protein stability index (san1∆): 2.65 ± 0.083 | protein stability index (ubr1∆): 3.03 ± 0.1

SIREDILECDLLICIGT [SIR2]
protein stability index (doa10∆): 2.45 ± 0.058 | protein stability index (pdr5∆): 2.15 ± 0.058 | protein stability index (san1∆): 2.78 ± 0.055 | protein stability index (ubr1∆): 2.39 ± 0.052

SASPHLAPNMQLNGNET [SNF2]
protein stability index (doa10∆): 3.23 ± 0.041 | protein stability index (pdr5∆): 2.96 ± 0.043 | protein stability index (san1∆): 3.1 ± 0.025 | protein stability index (ubr1∆): 3.256 ± 0.032

LTGTVVSTKMHRTIVIR [RPS11A]
protein stability index (doa10∆): 2.06 ± 0.063 | protein stability index (pdr5∆): 2.25 ± 0.046 | protein stability index (san1∆): 2.14 ± 0.08 | protein stability index (ubr1∆): 1.87 ± 0.037
